Experimental data published in publication PMC7897479.

Legend:
SpCas9-His [1] = biological target: T1, SpCas9-His (Streptococcus pyogenes, UniProt Q99ZW2 1-1368); assay: EMSA
SpCas9-His [2] = biological target: T1, SpCas9-His; assay: SPR

T1 sequence (Q99ZW2 whole entry): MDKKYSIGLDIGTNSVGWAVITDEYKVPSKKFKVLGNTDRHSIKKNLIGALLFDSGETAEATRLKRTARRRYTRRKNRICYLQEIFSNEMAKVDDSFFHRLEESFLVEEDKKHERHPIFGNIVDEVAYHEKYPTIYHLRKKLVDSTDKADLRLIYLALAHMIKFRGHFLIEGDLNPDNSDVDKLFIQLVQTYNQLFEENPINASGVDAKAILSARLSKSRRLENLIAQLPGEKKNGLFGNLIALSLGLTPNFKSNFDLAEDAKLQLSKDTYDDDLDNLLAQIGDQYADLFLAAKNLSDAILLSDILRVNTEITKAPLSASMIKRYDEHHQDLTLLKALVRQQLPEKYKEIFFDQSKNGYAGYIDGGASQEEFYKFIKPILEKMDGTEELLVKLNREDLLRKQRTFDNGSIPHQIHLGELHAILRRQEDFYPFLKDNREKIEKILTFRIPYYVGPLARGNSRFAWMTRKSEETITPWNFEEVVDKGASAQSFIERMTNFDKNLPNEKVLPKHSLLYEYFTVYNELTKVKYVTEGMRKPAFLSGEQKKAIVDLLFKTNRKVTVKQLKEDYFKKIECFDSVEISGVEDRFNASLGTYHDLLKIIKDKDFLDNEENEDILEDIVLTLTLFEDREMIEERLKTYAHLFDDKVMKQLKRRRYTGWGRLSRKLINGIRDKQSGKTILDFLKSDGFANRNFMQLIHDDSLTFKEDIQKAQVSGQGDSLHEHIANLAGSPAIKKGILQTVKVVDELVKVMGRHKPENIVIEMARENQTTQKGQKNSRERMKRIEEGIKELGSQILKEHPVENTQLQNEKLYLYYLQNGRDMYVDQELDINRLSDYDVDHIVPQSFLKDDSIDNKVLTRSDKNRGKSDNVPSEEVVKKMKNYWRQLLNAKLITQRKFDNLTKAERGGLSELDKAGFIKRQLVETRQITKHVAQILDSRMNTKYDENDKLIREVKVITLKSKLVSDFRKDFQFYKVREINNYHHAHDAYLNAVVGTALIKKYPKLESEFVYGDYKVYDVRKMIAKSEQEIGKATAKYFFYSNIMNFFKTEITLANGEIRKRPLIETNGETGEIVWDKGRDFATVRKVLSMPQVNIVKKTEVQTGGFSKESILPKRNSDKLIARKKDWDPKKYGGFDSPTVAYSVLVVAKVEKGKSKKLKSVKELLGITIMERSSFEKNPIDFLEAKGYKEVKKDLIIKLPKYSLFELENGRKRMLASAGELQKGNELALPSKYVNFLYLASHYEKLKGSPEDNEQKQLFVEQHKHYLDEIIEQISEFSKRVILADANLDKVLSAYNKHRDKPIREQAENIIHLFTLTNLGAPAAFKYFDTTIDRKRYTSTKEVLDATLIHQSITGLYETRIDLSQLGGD

| Binder | binding result (SpCas9-His [1]) | other results |
| --- | --- | --- |
| GAGGCTCTCACAGTAATGTGAGAGCCT (structured_DNA) [Loop-NC for EMSA] | no binding | – |
| GGTCCTCACACCGCTGTGTGCCGCAACACTGTGAGGACC (structured_DNA) [SA-Ap (streptavidin aptamer)] | no binding | – |
| GAGGCTCTCACAGCGCGCCTTTCGTTGTGAGAGCCTC (structured_DNA) [SS21 NM2] | no binding | – |
| GAGGCTCTCACATCGCGCCTTTCCCCAGCTTTCGGTGTGAGAGCCTC (structured_DNA) [S21 for Biacore] | – | Kd (SpCas9-His [2]): 630 pM |
| GAGGCTCTCACAGTAATGTGAGAGCCT (structured_DNA) [Loop-NC for Biacore] | – | binding result (SpCas9-His [2]): no binding |
